# What was measured:
# ECFC [1] = assay: ECFC proliferation assay; format: cell-based, human; conditions: recombinant proteins 50 ng/ml, in the presence of GM6001 10 μM
# Procedure: A: Effect of siRNA targeting I10-sCD146 and I5-13-sCD146 on proliferation of ECFC. Experiments were performed in the presence of GM6001 10 μM. Results are mean values of 4 different experiments and representative pictures of the cells in one experiment are given.
# B: Effect of over-expression of I10-sCD146 (p-I10-sCD146), I5-13-sCD146 (p-I5-13-sCD146) and shed sCD146 (p-shed sCD146) realized by plasmid transfection on proliferation of ECFC. Experiments were performed in the presence of GM6001 10 μM.
# C: Effect of recombinant proteins I10-sCD146, I5-13-sCD146 and shed sCD146 50 ng/ml on the proliferation of ECFC. Experiments were performed in the presence of GM6001 10 μM. Results are mean values of 4 different experiments.
# Experiments were performed as previously described (Stalin et al., 2013).
# [2] = system: CD146 KO mouse model of Systemic Sclerosis; assay: CD146 KO mouse model of Systemic Sclerosis induced by bleomycin; format: in vivo; conditions: bleomycin-treated animals, subcutaneous injection
# Procedure: C: Dermal thickness was evaluated in a CD146 KO mouse model of Systemic Sclerosis induced by subcutaneous injection of bleomycin. The effect of shed sCD146, I5-13-sCD146 and I10-sCD146 was estimated and the average of 4-5 different animals was given. Representative pictures are also shown.
# D: The aspect of the skin is shown in the different CD146 KO mice treated with bleomycin and injected or not with shed sCD146, I10-sCD146 and I5-13-sCD146.
# E: Blood vessels examination in skin of animals treated or not with shed sCD146/I10-sCD146/I5-13-sCD146. Vessels are labelled with isolectin B4. Results are representative of 3 different experiments in the 4-5 animals.
# Male CD146 KO mice (11-16 weeks) were treated with subcutaneous bleomycin and were compared with littermates WT mice as previously described (Kaspi et al., 2017).
# Mice skin sections were fixed in 4% formalin and embedded into paraffin. Dermal thickness was quantified using a stereological method using a Merz grid as previously described (Kaspi et al., 2017).
# ECFC [3] = assay: Endothelial cell tube formation in spheroids; format: cell-based, human; conditions: recombinant proteins 50 ng/ml
# Procedure: E: Effect of recombinant proteins I10-sCD146, I5-13-sCD146 and shed sCD146 50 ng/ml on the number of sprouts, branched points and cumulative sprout length in spheroid experiments realized with ECFC. Results were compared to VEGF 20 ng/ml and complete EGM2-MV medium.
# Formation of spheroid experiments was performed as previously described (Korff T. et al., 2001).
# [4] = system: chorio-allantoic membrane of the chick embryo; assay: Chorio-allantoic membrane assay; format: in vivo; conditions: 25 ng/ml or 50 ng/ml, 48 h
# Procedure: D: Yolk sac membrane assays were performed in the presence of 25 ng/ml or 50 ng/ml I5-13-sCD146 and I10-sCD146 for 48 h and compared to control. Representative pictures of 4 different experiments are given.
# The chorio-allantoic membrane of the chick embryo assay (CAM) was performed using a previously described protocol (Beckers et al., 1997).
# The chorio-allantoic membrane of the chick embryo assay (CAM) was surgically removed and fixed in 10% buffered formaldehyde for 10 hours, dehydrated in graded alcohol, cleared in xylene and embedded in paraffin. 5 μm thick sections were cut in a plane parallel to the surface of the CAM and stained by hematoxylin-eosin which was observed under a light photomicroscope.
# [5] = system: b-catenin/TCF transcription activity; assay: b-catenin/TCF transcription assay (luciferase) in Mouse Embryonic Fibroblasts; format: cell-based; conditions: MEF from CD146 KO mice treated with bleomycin
# Procedure: B: Activation of canonical Wnt signalling (b-catenin/TCF transcription activity; Luciferase assay) was estimated in Mouse Embryonic Fibroblasts (MEF) from CD146 KO and WT mice. MEF were treated or not with bleomycin in the presence or absence of shed sCD146, I5-13-sCD146 or I10-sCD146. Results are the mean values +/−SEM of 5 independent experiments.
# HUVEC were obtained as previously described and were cultured in EGM2 medium (Kaspi et al., 2017). MEF (Mouse Embryonic Fibroblasts) were isolated from day 13. Embryos from CD146 KO or WT mice were isolated and cultured as previously described (Xu J., 2005).
# Luciferase assay was performed as previously described (Kaspi et al., 2017).
Molecule,endothelial cells proliferation (ECFC [1]),dermal thickness [2],vascularisation of the skin at macroscopic level [2],vessel density in skin (isolectin-b4 labelling) [2],"pseudo-capillary generation (number of sprouts, cumulative sprout length) (ECFC [3])",vascularisation in chorio-allantoic membrane assay [4],b-catenin/TCF transcription activity [5]
"sCD146: recombinant human soluble form of CD146 corresponding to the shed sCD146, obtained from Biocytex",increased endothelial cells proliferation,reduced this dermal thickness to the value observed in control animals,increased vascularisation,significantly reversed,increased the ability to generate pseudo-capillaries,increased vascularisation,decreased b-catenin/TCF transcription activity
"rh-I10-sCD146: recombinant spliced variant of soluble CD146 containing intron 10, SEQ ID NO: 9 (protein, listed as Homo sapiens) MGLPRLVCAFLLAACCCCPRVAGVPGEAEQPAPELVEVEVGSTALLKCGLSQSQGNLSHVDWFSVHKEKRTLIFRVRQGQGQSEPGEYEQRLSLQDRGATLALTQVTPQDERIFLCQGKRPRSQEYRIQLRVYKAPEEPNIQVNPLGIPVNSKEPEEVATCVGRNGYPIPQVIWYKNGRPLKEEKNRVHIQSSQTVESSGLYTLQSILKAQLVKEDKDAQFYCELNYRLPSGNHMKESREVTVPVFYPTEKVWLEVEPVGMLKEGDRVEIRCLADGNPPPHFSISKQNPSTREAEEETTNDNGVLVLEPARKEHSGRYECQGLDLDTMISLLSEPQELLVNYVSDVRVSPAAPERQEGSSLTLTCEAESSQDLEFQWLREETGQVLERGPVLQLHDLKREAGGGYRCVASVPSIPGLNRTQLVNVAIFGEALPLGRDQVTPSGVVFKLFDKKPPAALGSSGAEGEAG",increased endothelial cells proliferation,reduced this dermal thickness to the value observed in control animals,increased vascularisation,significantly reversed,increased the ability to generate pseudo-capillaries,increased vascularisation,decreased b-catenin/TCF transcription activity
"rh-I5-13-sCD146: recombinant spliced variant of soluble CD146 containing introns 5 and 13, SEQ ID NO: 8 (protein, listed as Homo sapiens) MVYIVRQFLLYNVSGSVYLDQLIVLLTAKFSILRIAGSRVHHSPFSGHLDGCSFLSLQHSLHTSLDMSRHENVFLGLTLSSKSAGLKGFQLAFVPGLLQGTGGYLDGPLPTPVDNPRVGLEVGLRLSLPPLPPCPGVHIQSSQTVESSGLYTLQSILKAQLVKEDKDAQFYCELNYRLPSGNHMKESREVTVPVFYPTEKVWLEVEPVGMLKEGDRVEIRCLADGNPPPHFSISKQNPSTREAEEETTNDNGVLVLEPARKEHSGRYECQGLDLDTMISLLSEPQELLVNYVSDVRVSPAAPERQEGSSLTLTCEAESSQDLEFQWLREETGQVLERGPVLQLHDLKREAGGGYRCVASVPSIPGLNRTQLVNVAIFGPPWMAFKERKVWVKENMVLNLSCEASGHPRPTISWNVNGTASEQDQDPQRVLSTLNVLVTPELLETGVECTASNDLGKNTSILFLELVNLTTLTPDSNTTTGLSTSTASPHTRANSTSTGKPGLAREQGCARASFLPCPSPESPVQKGE",increased endothelial cells proliferation,no significant effect,did not,no effect,increased the ability to generate pseudo-capillaries,increased vascularisation,increased it
